Here are results for 3 molecules from US7097843.

The target of this assay is recombinant HLA-A*0201 refolded with purified human beta2-microglobulin (human). The assay can be described thus: circular dichroism melting of the refolded peptide-HLA-b2m complex (temperature at which 50% is melted).
With LLMGTLGIVCPIC (modifications not checked) [peptide A2.1/4], the Tm came out at 41 °C.
Then TLGIVCPIC (modifications not checked) [peptide A2.4], with 41.5 °C; and YMLDLQPET (modifications not checked) [peptide A2.2], with 52.5 °C.
